Measurements as given in patent US7829669B2, “Catalytically active recombinant memapsin and methods of use thereof” (Oklahoma Medical Research Foundation, priority 1999, dated 2010).

Legend:
M2pd = target: T1, M2pd (Homo sapiens, UniProt P56817); assay: Hydrolysis of synthetic peptide substrates by M2pd, kinetics by HPLC; assay type: biochemical
T1 construct: Pro-memapsin 2 residues start at residue Ala-16; The two recombinant pro-memapsin 2s have different C-terminal lengths; Clone T1 ends at Thr-456; made in house
T1 sequence (P56817 14-454): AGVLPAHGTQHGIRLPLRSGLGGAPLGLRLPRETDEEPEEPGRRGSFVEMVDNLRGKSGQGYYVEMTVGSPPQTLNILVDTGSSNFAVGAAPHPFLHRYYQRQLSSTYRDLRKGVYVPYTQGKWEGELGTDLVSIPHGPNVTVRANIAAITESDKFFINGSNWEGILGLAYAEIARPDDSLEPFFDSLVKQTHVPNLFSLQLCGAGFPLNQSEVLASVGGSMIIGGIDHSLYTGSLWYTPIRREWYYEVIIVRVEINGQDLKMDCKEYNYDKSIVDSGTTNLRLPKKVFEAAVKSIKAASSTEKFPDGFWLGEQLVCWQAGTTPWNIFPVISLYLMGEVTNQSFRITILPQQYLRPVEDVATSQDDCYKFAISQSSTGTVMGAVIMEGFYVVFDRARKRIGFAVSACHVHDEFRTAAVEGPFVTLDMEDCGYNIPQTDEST
Description: A synthetic peptide derived from this site (SEVKM/DAEFR) (SEQ ID NO:4) was hydrolyzed by M2pd at the beta-secretase site (marked by /). A second peptide (SEVNL/DAEFR) (SEQ ID NO:5) derived from the APP beta-secretase site and containing the ‘Swedish mutation’ (Mullan, M. et al., Nature Genet. 2:340-342 (1992)), known to elevate the level of alpha-beta production in cells (Citron, M. et al., Nature […] (1992)), was hydrolyzed by M2pd with much higher catalytic efficiency. Both substrates were optimally cleaved at pH 4.0. A peptide derived from the processing site of presenilin 1 (SVNM/AEGD) (SEQ ID NO:6) was also cleaved by M2pd with less efficient kinetic parameters. […]
Incubation in 0.1 M sodium acetate, pH 4.0, for 16 h at 22° C. auto-catalytically converted pro-M2pd to M2pd. […] For kinetic studies, the identified HPLC (Beckman System Gold) product peaks were integrated for quantitation. The Km and kcat values for presenilin 1 and Swedish APP peptides (Table 1) were measured by steady-state kinetics. The individual Km and kcat values for APP peptide could not be measured accurately by standard methods, so its kcat/Km value was measured by competitive hydrolysis of mixed substrates against presenilin 1 peptide (Fersht, A. “Enzyme Structure and Mechanism”, 2nd Ed., W.H. Freeman and Company, New York. (1985)).

[1] = test system: APP cleavage by M2 in HeLa cells; assay: APP cleavage in HeLa cells co-transfected with APP and M2, pulse-chase and immunoprecipitation; assay type: cell-based, human; details: Bafilomycin A1 in the media

Compound	cleavage by M2pd (M2pd)	production of APP fragments beta N- and beta C- [1]
KGGVVIATVIVK	not cleaved	
CO/C1=C\C(C)=C\[C@@H](C)[C@@H](O)[C@@H](C)C/C(C)=C/C=C/[C@H](OC)[C@@H]([C@@H](C)[C@@H](O)[C@H](C)[C@@]2(O)C[C@@H](O)[C@H](C)[C@@H](C(C)C)O2)OC1=O [Bafilomycin A1]		abolished the production of both APP fragments
